# Reference: PMC314469, “Protein Interaction Networks by Proteome Peptide Scanning” (PLoS Biology, 2004)
# T1: Yhr016c SH3 (YSC84_YEAST), P32793
# T1 chain: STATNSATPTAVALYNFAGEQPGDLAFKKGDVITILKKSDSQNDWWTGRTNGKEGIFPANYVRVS
# T2: Rvs167 SH3 (RV167_YEAST), P39743
# T2 chain: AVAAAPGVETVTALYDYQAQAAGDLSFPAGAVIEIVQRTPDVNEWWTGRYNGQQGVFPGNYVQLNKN
# T3: Yfr024 SH3 (LSB3_YEAST), P43603
# T3 chain: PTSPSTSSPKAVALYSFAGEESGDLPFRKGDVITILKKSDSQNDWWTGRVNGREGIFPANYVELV
# T4: Boi1 SH3 (BOI1_YEAST), P38041
# T4 chain: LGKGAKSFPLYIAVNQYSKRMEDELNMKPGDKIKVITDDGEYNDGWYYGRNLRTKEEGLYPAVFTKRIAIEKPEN
# T5: Boi2 SH3 (BOI2_YEAST), P39969
# T5 chain: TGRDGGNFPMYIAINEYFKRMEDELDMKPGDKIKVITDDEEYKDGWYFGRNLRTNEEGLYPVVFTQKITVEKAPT
# B1: YOR322C 268-281 (peptide)
# chain: RSIPRGPDKNSLRV
# B2: YFR013W 82-95 (peptide)
# chain: RKRPAPPKKKAPST
# B3: YDR223W 12-25 (peptide)
# chain: RRKPHSPNKKKPKE
# B4: YER032W 258-271 (peptide)
# chain: RPPPLTPEKNLYLT
# B5: YER163C 47-60 (peptide)
# chain: RGTPANPGRVATLI
# B6: YJL095W 1078-1091 (peptide)
# chain: RTEPSTPSRPVPPD
# B7: YDR359C 776-789 (peptide)
# chain: RPNPTQPRKPLDSK
# B8: YNL139C 1279-1292 (peptide)
# chain: RNEPVIPTKPSSSQ
# B9: YHR037W 29-42 (peptide)
# chain: RNEPVKPFRNIDLK
# B10: YMR004W 190-203 (peptide)
# chain: RMIPELPPKRIGSQ
# B11: YOR181W 311-324 (peptide)
# chain: RPLPQLPNRNNRPV
# B12: YIL047C 210-223 (peptide)
# chain: RLLPSWPKRGFSLL
# B13: YGR146C 14-27 (peptide)
# chain: RLIPTSPQKTNINT
# B14: YNL064C 356-369 (peptide)
# chain: RIVPAIPKKATVDE
# B15: YDR151C 80-93 (peptide)
# chain: RPSPWLPSKPNSYH
# B16: YGR198W 7-20 (peptide)
# chain: RIPPTVPSKIIDVV
# B17: YER118C 8-21 (peptide)
# chain: RPTPRKPSRMATDH
# B18: YOL164W 148-161 (peptide)
# chain: RHRPQKPVRTVIYT
# B19: YDR310C 204-217 (peptide)
# chain: RRGPGRPRKDASTS
# Target: T1, Yhr016c SH3 (YSC84_YEAST), P32793
# Test: SPOT array
row,Binder,"normalised SPOT signal, Boehringer light units (BLU); mean over the file's lines of this peptide"
1,B1,144
2,B2,45.5
3,B3,113
4,B4,0
5,B5,199
6,B6,435
7,B7,104
8,B8,115
9,B9,838
10,B10,19200
11,B11,9140
12,B12,1130
13,B13,197
14,B14,3320
15,B15,578
16,B16,158
17,B17,2650
18,B18,90.2
19,B19,57.2

# Target: T2, Rvs167 SH3 (RV167_YEAST), P39743
# Test: SPOT array
row,Binder,"normalised SPOT signal, Boehringer light units (BLU); mean over the file's lines of this peptide"
1,B1,296
2,B2,59.3
3,B3,38.5
4,B4,50.7
5,B5,48.8
6,B6,15.7
7,B7,162
8,B8,4.9
9,B9,39
10,B10,4880
11,B11,25200
12,B12,719
13,B13,73.9
14,B14,10900
15,B15,140
16,B16,44.9
17,B17,2100
18,B18,48.3
19,B19,212

# Target: T3, Yfr024 SH3 (LSB3_YEAST), P43603
# Test: SPOT array
row,Binder,"normalised SPOT signal, Boehringer light units (BLU); mean over the file's lines of this peptide"
1,B1,384
2,B2,840
3,B3,693
4,B4,381
5,B5,146
6,B6,7000
7,B7,271
8,B8,511
9,B9,6040
10,B10,34800
11,B11,19600
12,B12,10700
13,B13,547
14,B14,13100
15,B15,6260
16,B16,618
17,B17,16500
18,B18,3300
19,B19,889

# Target: T4, Boi1 SH3 (BOI1_YEAST), P38041
# Test: SPOT array
row,Binder,"normalised SPOT signal, Boehringer light units (BLU); mean over the file's lines of this peptide"
1,B1,230
2,B2,192
3,B3,148
4,B4,64.5
5,B5,147
6,B6,54.7
7,B7,210
8,B8,61.2
9,B9,146
10,B10,366
11,B11,6170
12,B12,69.4
13,B13,52.5
14,B14,92.7
15,B15,102
16,B16,43.1
17,B17,80.2
18,B18,101
19,B19,323

# Target: T5, Boi2 SH3 (BOI2_YEAST), P39969
# Test: SPOT array
row,Binder,"normalised SPOT signal, Boehringer light units (BLU); mean over the file's lines of this peptide"
1,B1,76.1
2,B2,39.9
3,B3,198
4,B4,75.9
5,B5,0
6,B6,8.2
7,B7,61.7
8,B8,17
9,B9,47.3
10,B10,201
11,B11,33.8
12,B12,251
13,B13,30.1
14,B14,27.5
15,B15,37.2
16,B16,22.2
17,B17,74.7
18,B18,62.7
19,B19,53.5
